Measured values as given in paper PMC9700832 (2022).

B1: B. thuringiensis serovar israelensis LexA (natural protein)
chain: MEKLTKRQQDILDFIKLKVQEKGYPPSVREIGQAVGLASSSTVHGHLSRLEEKGYIRRDPTKPRAIEILGEDRMDTETQSVIQVPIVGKVTAGLPITAVESVEEHFPLPASIVAGADQVFMLRISGDSMIEAGIFDGDLVVVRQQQSAYNGEIVVALTEDNEATVKRFYKEKDHFRLQPENSSLEPIILKQVSVIGKVIGVYRDLH
B2: tectiviral gp7 homolog from B. mycoides VDm034 phage Lima (natural protein)
chain: MRDKLLDFIIELSQSSKQVVAKDYVIDRLMQVTKEDYKEMEKKTEGKKN
B3: gp7 protein of GIL01 phage (natural protein)
chain: MRDKLLDFIIELSQSSKQVVSKSYVIDRLMQVTKEDYKELEKNVEGKKDD

What was measured:
Test in all cases: SPR
[1] = biological target: tectiviral gp7 homolog from the phage found in B. thuringiensis serovar aizawai (tectiviral phage found in B. …)
[2] = biological target: tectiviral gp7 homolog from B. cereus AND1284 phage Sato (phage Sato (B. cereus AND1284))
[3] = biological target: tectiviral gp7 homolog from the phage found in B. cereus VD184 (tectiviral phage found in B. cereus …)
[4] = biological target: tectiviral gp7 homolog from B. anthracis phage AP50 (phage AP50 (B. anthracis))
[5] = biological target: B1

| Binder | Kd [1] | Kd [2] | Kd [3] | Kd [4] | Kd [5] |
| --- | --- | --- | --- | --- | --- |
| B1 | 150 nM | 190 nM | 148 nM | 167 nM | – |
| B2 | – | – | – | – | 185 nM |
| B3 | – | – | – | – | 169 nM |
